± gives the standard deviation of the averaged measurements.
Assays:
Saccharomyces cerevisiae [1] = assay: protein stability index of tFT-peptide fusion (C-terminal peptide) (PSI (0-1 scale)); higher = more stable (slower turnover); settings: genetic background: wild type; temperature: 30 C
Saccharomyces cerevisiae [2] = assay: as above
Description: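 MPS profiling in S. cerevisiae of the tFT-X12 degron library: putative degron peptides plus stable controls, 12 aa, fused to the C-terminus of a sfGFP-mCherry timer. Cells are FACS-sorted into 8 mCherry/sfGFP bins and deep-sequenced. PSI runs from 0 (unstable) to 1 (stable). Backgrounds are wild type, das1Δ and doa10Δ at 30 °C, and wild type, das1Δ, cdc34-1 and cdc53-1 at 37 °C; 2-3 technical replicates each.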

[3] = genetic background: cdc34-1, temperature: 37 C
[4] = genetic background: cdc53-1, temperature: 37 C
[5] = genetic background: das1 deletion, temperature: 30 C
[6] = genetic background: das1 deletion, temperature: 37 C
[7] = genetic background: doa10 deletion, temperature: 30 C
[8] = genetic background: wild type, temperature: 30 C
[9] = genetic background: wild type, temperature: 37 C
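Also: PSI is a weighted mean of sequencing reads over stability bins, variants kept only with over 10 reads, mCherry proximal and sfGFP distal, peptide attached via GGGS linker.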

Sequence	protein stability index (Saccharomyces cerevisiae [1])	protein stability index (Saccharomyces cerevisiae [2]; [3])	protein stability index (Saccharomyces cerevisiae [2]; [4])	protein stability index (Saccharomyces cerevisiae [2]; [5])	protein stability index (Saccharomyces cerevisiae [2]; [6])	protein stability index (Saccharomyces cerevisiae [2]; [7])	protein stability index (Saccharomyces cerevisiae [2]; [8])	protein stability index (Saccharomyces cerevisiae [2]; [9])
YLGSPLSLMLVA	0.475 ± 0.032	0.48 ± 0.022	0.491 ± 0.026	0.379 ± 0.031	0.51 ± 0.006	0.332 ± 0.031	0.355 ± 0.022	0.481 ± 0.009
GYSMPVSFFFAL	0.356 ± 0.0092	0.669 ± 0.057	0.779 ± 0.012	0.616 ± 0.017	0.745 ± 0.0082	0.201 ± 0.011	0.24 ± 0.017	0.453 ± 0.014
ILRAGITYVYAV	0.399 ± 0.04	0.515 ± 0.014	0.544 ± 0.036	0.325 ± 0.038	0.5463 ± 0.0033	0.264 ± 0.0082	0.296 ± 0.016	0.493 ± 0.013
LHLSSFVILLEL	0.421 ± 0.021	0.36297 ± 6.8e-05	0.317 ± 0.035	0.353 ± 0.024	0.458 ± 0.018	0.478 ± 0.023	0.346 ± 0.014	0.437 ± 0.021
LLSPFLLMLLFL	0.28 ± 0.004	0.4001 ± 0.0019	0.395 ± 0.0071	0.344 ± 0.007	0.432 ± 0.0046	0.221 ± 0.01	0.2 ± 0.02	0.317 ± 0.013
RRIILAGLFLIS	0.403 ± 0.0097	0.586 ± 0.028	0.613 ± 0.029	0.437 ± 0.033	0.623 ± 0.046	0.332 ± 0.021	0.353 ± 0.014	0.537 ± 0.0093
YWGFHPCCAFGY	0.711 ± 0.0091	0.722 ± 0.048	0.784 ± 0.012	0.636 ± 0.013	0.77 ± 0.023	0.654 ± 0.035	0.659 ± 0.019	0.745 ± 0.051
QPTPQSALAKHQ	0.515 ± 0.04	0.655 ± 0.018	0.721 ± 0.04	0.6492 ± 0.005	0.731 ± 0.034	0.3327 ± 0.0025	0.337 ± 0.0054	0.544 ± 0.04
VVGILVLASWDL	0.376 ± 0.045	0.184 ± 0.011	0.321 ± 0.058	0.264 ± 0.041	0.426 ± 0.019	0.196 ± 0.0056	0.225 ± 0.029	0.373 ± 0.017
FKKIKGKIEKKN	0.481 ± 0.023	0.736 ± 0.021	0.897 ± 0.023	0.609 ± 0.042	0.726 ± 0.05	0.339 ± 0.061	0.336 ± 0.012	0.448 ± 0.0082
LFLIFFSFLFLC	0.166 ± 0.028	0.135 ± 0.041	0.0847 ± 0.014	0.206 ± 0.024	0.26132 ± 1.1e-05	0.211 ± 0.0073	0.114 ± 0.04	0.141 ± 0.02
VISVFAISTRVD	0.475 ± 0.0055	0.489 ± 0.076	0.4901 ± 0.00049	0.409 ± 0.057	0.5675 ± 0.0051	0.398 ± 0.01	0.414 ± 0.018	0.513 ± 0.066
SWELKWVYARVV	0.131 ± 0.005	0.374 ± 0.0097	0.5602 ± 0.0046	0.516 ± 0.02	0.674 ± 0.017	0.093 ± 0.0033	0.0851 ± 0.0075	0.0902 ± 0.0089
GLFGFASPPPPS	0.25 ± 0.032	0.678 ± 0.042	0.7583 ± 0.0047	0.677 ± 0.016	0.749 ± 0.0081	0.6784 ± 0.0035	0.71 ± 0.021	0.722 ± 0.011
HLRWYITGIVWF	0.4216 ± 0.00048	0.4885 ± 0.0024	–	0.413 ± 0.11	0.671 ± 0.17	0.311 ± 0.019	0.359 ± 0.087	0.543 ± 0.017
PLLLFFFPRLLF	0.475 ± 0.024	0.579 ± 0.046	0.62 ± 0.025	0.535 ± 0.027	0.6481 ± 0.0026	0.39 ± 0.0054	0.382 ± 0.019	0.559 ± 0.025
VCCSILFSAFLV	0.475 ± 0.041	0.614 ± 0.088	0.6552 ± 0.0051	0.532 ± 0.019	0.653 ± 0.001	0.4 ± 0.024	0.4 ± 0.012	0.549 ± 0.013
VSFFCLICRVYP	0.434 ± 0.099	0.371 ± 0.0078	0.4463 ± 0.0044	0.317 ± 0.033	0.4808 ± 0.0037	0.298 ± 0.008	0.313 ± 0.012	0.417 ± 0.039
SLCSSVQVWSVV	0.693 ± 0.027	0.7 ± 0.049	0.763 ± 0.024	0.612 ± 0.013	0.732 ± 0.011	0.5868 ± 0.0032	0.634 ± 0.037	0.716 ± 0.011
VTEGMKEVIKQI	0.482 ± 0.0079	0.647 ± 0.014	0.702 ± 0.026	0.629 ± 0.044	0.728 ± 0.013	0.3751 ± 0.00062	0.402 ± 0.038	0.6073 ± 0.0042

Sequence	protein stability index (Saccharomyces cerevisiae [1])	protein stability index (Saccharomyces cerevisiae [2]; [3])	protein stability index (Saccharomyces cerevisiae [2]; [4])	protein stability index (Saccharomyces cerevisiae [2]; [5])	protein stability index (Saccharomyces cerevisiae [2]; [6])	protein stability index (Saccharomyces cerevisiae [2]; [7])	protein stability index (Saccharomyces cerevisiae [2]; [8])	protein stability index (Saccharomyces cerevisiae [2]; [9])
IWRGGSAVPMIC	0.267 ± 0.058	0.627 ± 0.075	0.686 ± 0.022	0.572 ± 0.025	0.721 ± 0.013	0.167 ± 0.0098	0.195 ± 0.023	0.351 ± 0.02
CGWFVSVGWRLG	0.25 ± 0.013	0.5443 ± 0.0014	0.67 ± 0.037	0.514 ± 0.016	0.66 ± 0.0096	0.228 ± 0.014	0.305 ± 0.035	0.5062 ± 0.0022
VKVKMKIIIIIK	0.341 ± 0.0073	0.243 ± 0.16	0.258 ± 0.16	0.28 ± 0.044	0.416 ± 0.032	0.3087 ± 0.0006	0.281 ± 0.087	0.432 ± 0.012
FYLSSCFLFLRF	0.355 ± 0.0087	0.174 ± 0.052	0.136 ± 0.046	0.311 ± 0.012	0.33618 ± 0.0003	0.62 ± 0.04	0.288 ± 0.017	0.305 ± 0.023
WKNIHGVFVFVM	0.403 ± 0.012	0.5472 ± 0.001	0.48 ± 0.014	0.389 ± 0.028	0.5696 ± 0.0012	0.25 ± 0.0047	0.284 ± 0.03	0.445 ± 0.0072
TLWWRQPFWGFG	0.722 ± 0.042	0.731 ± 0.038	0.802 ± 0.0045	0.659 ± 0.013	0.8 ± 0.021	0.673 ± 0.0095	0.702 ± 0.013	0.781 ± 0.017
NNQIQKKMYQTN	0.35 ± 0.022	0.585 ± 0.022	0.778 ± 0.018	0.667 ± 0.019	0.737 ± 0.012	0.179 ± 0.025	0.198 ± 0.05	0.473 ± 0.051
AFFGIYLICFIV	0.207 ± 0.073	0.118 ± 0.008	0.2044 ± 0.00042	0.225 ± 0.024	0.382 ± 0.014	0.1711 ± 0.001	0.125 ± 0.007	0.146 ± 0.013
FVLWLIYVDLFF	0.287 ± 0.094	0.214 ± 0.039	0.234 ± 0.013	0.196 ± 0.048	0.342 ± 0.015	0.181 ± 0.019	0.22 ± 0.033	0.339 ± 0.041
FLYSVLLICKFI	0.135 ± 0.12	0.214 ± 0.029	0.258 ± 0.016	0.224 ± 0.037	0.389 ± 0.013	0.118 ± 0.016	0.0757 ± 0.035	0.0829 ± 0.034
VPGCLGRFLFFL	0.29 ± 0.024	0.594 ± 0.025	0.6987 ± 0.0066	0.573 ± 0.024	0.722 ± 0.029	0.201 ± 0.032	0.218 ± 0.029	0.413 ± 0.029
VVVFRWTCWLLV	0.0581 ± 0.028	0.0544 ± 0.005	0.144 ± 0.023	0.0835 ± 0.013	0.245 ± 0.0041	0.0257 ± 0.014	0.0385 ± 0.011	0.06333 ± 0.00029
WFLVFLRVGDGP	0.474 ± 0.01	0.539 ± 0.01	0.566 ± 0.0072	0.362 ± 0.027	0.6 ± 0.0068	0.353 ± 0.039	0.378 ± 0.023	0.545 ± 0.016
YPPLFLLMRGVL	0.258 ± 0.075	0.594 ± 0.021	0.694 ± 0.013	0.605 ± 0.018	0.712 ± 0.021	0.157 ± 0.011	0.175 ± 0.034	0.357 ± 0.016
LSVYGFYKMPAG	0.502 ± 0.031	0.501 ± 0.024	0.5271 ± 0.0027	0.487 ± 0.011	0.561 ± 0.018	0.521 ± 0.032	0.491 ± 0.0073	0.5368 ± 0.0015
CFFILSLMVVVI	0.194 ± 0.054	0.0733 ± 0.0068	0.16 ± 0.027	0.12 ± 0.029	0.229 ± 0.0071	0.0944 ± 0.0056	0.0999 ± 0.03	0.183 ± 0.0091
GRHRRIRYVKTS	0.261 ± 0.087	0.633 ± 0.05	0.723 ± 0.0099	0.655 ± 0.014	0.744 ± 0.028	0.146 ± 0.024	0.183 ± 0.03	0.3527 ± 0.00097
DGSFCLLYMTIA	0.454 ± 0.01	0.504 ± 0.066	0.5745 ± 0.002	0.429 ± 0.02	0.615 ± 0.046	0.293 ± 0.0055	0.332 ± 0.016	0.4919 ± 0.0048
FFLLTCFLLPSV	0.441 ± 0.015	0.44 ± 0.03	0.512 ± 0.013	0.346 ± 0.036	0.526 ± 0.014	0.328 ± 0.013	0.341 ± 0.024	0.514 ± 0.014

Reference: the supplement of paper PMC10724198
